According to publication PMC8005036 (Vaccines, 2021):

Biological target: the molecule itself
Assay: negative-stain transmission elect

B1: LS-SpyTag (Aquifex aeolicus lumazine synthase multimeric protein scaffold particle with SpyTag) (other)
chain: MQIYEGKLTAEGLRFGIVASRFNHALVDRLVEGAIDAIVRHGGREEDITLVRVPGSWEIPVAAGELARKEDIDAVIAIGVLIRGATPHFDYIASEVSKGLANLSLELRKPITFGVITADTLEQAIERAGTKHGNKGWEAALSAIEMANLFKSLRGGGGSGGGGSGGGGSAHIVMVDAYKPTK
notes: also called LS-ST; LS-MPSPs; copies: 60
- binding result: binds
